Experiments:
HLA-B*40:01 = test: IEDB peptide-MHC binding, purified MHC/direct/fluorescence; filed as Kd, often an IC50 or EC50 that approximates it; ≥ and ≤ were set here for values at or beyond the usual limits of such assays; details: source organism: Yersinia pestis
HLA-B*07:02 = test: as above; details: source organism: Yersinia pestis
HLA-A*02:16 [1] = test: as above; details: source organism: Yersinia pestis CA88-4125
HLA-A*01:01 = test: as above; details: source organism: Yersinia pestis
HLA-B*08:01 = test: as above; details: source organism: Yersinia pestis CA88-4125
HLA-B*44:02 = test: as above; details: source organism: Yersinia pestis
HLA-B*08:02 = test: as above; details: source organism: Yersinia pestis CA88-4125
HLA-B*27:05 = test: as above; details: source organism: Yersinia pestis
HLA-A*31:01 [2] = test: as above; details: source organism: Yersinia pestis
HLA-A*11:01 = test: as above; details: source organism: Yersinia pestis
HLA-A*69:01 [3] = test: as above; details: source organism: Yersinia pestis
HLA-A*02:03 [4] = test: as above; details: source organism: Yersinia pestis CA88-4125
HLA-A*02:12 [5] = test: as above; details: source organism: Yersinia pestis CA88-4125
HLA-A*02:19 [6] = test: as above; details: source organism: Yersinia pestis CA88-4125
HLA-A*02:01 [7] = test: as above; details: source organism: Yersinia pestis
HLA-A*02:11 [8] = test: as above; details: source organism: Yersinia pestis CA88-4125
HLA-A*03:01 [9] = test: as above; details: source organism: Yersinia pestis
HLA-A*02:06 = test: as above; details: source organism: Yersinia pestis CA88-4125
HLA-B*58:01 = test: as above; details: source organism: Yersinia pestis
HLA-B*15:01 [10] = test: as above; details: source organism: Yersinia pestis
HLA-A*02:50 = test: IEDB peptide-MHC binding, purified MHC/competitive/fluorescence; filed as Kd, often an IC50 or EC50 that approximates it; ≥ and ≤ were set here for values at or beyond the usual limits of such assays; details: source organism: Yersinia pestis Nepal516
HLA-A*25:01 = test: as above; details: source organism: Entamoeba histolytica HM-1:IMSS
HLA-A*23:01 = test: as above; details: source organism: Entamoeba histolytica HM-1:IMSS
HLA-A*02:16 [11] = test: as above; details: source organism: Entamoeba histolytica HM-1:IMSS
HLA-A*29:02 = test: as above; details: source organism: Entamoeba histolytica HM-1:IMSS
HLA-A*68:02 = test: as above; details: source organism: Entamoeba histolytica HM-1:IMSS
HLA-A*69:01 [12] = test: as above; details: source organism: Entamoeba histolytica HM-1:IMSS
HLA-B*15:17 = test: as above; details: source organism: Entamoeba histolytica HM-1:IMSS
HLA-A*02:03 [13] = test: as above; details: source organism: Entamoeba histolytica HM-1:IMSS
HLA-A*02:12 [14] = test: as above; details: source organism: Entamoeba histolytica HM-1:IMSS
HLA-B*39:01 = test: as above; details: source organism: Entamoeba histolytica HM-1:IMSS
HLA-A*80:01 = test: as above; details: source organism: Entamoeba histolytica HM-1:IMSS
HLA-B*46:01 = test: as above; details: source organism: Entamoeba histolytica HM-1:IMSS
HLA-B*51:01 = test: as above; details: source organism: Entamoeba histolytica HM-1:IMSS
HLA-A*26:01 = test: as above; details: source organism: Entamoeba histolytica HM-1:IMSS
HLA-B*27:03 = test: as above; details: source organism: Entamoeba histolytica HM-1:IMSS
HLA-A*02:19 [15] = test: as above; details: source organism: Entamoeba histolytica HM-1:IMSS
HLA-A*02:01 [16] = test: as above; details: source organism: Entamoeba histolytica HM-1:IMSS
HLA-A*02:11 [17] = test: as above; details: source organism: Entamoeba histolytica HM-1:IMSS
HLA-B*18:01 = test: as above; details: source organism: Entamoeba histolytica HM-1:IMSS
HLA-A*03:01 [18] = test: as above; details: source organism: Entamoeba histolytica HM-1:IMSS
HLA-B*57:01 = test: as above; details: source organism: Entamoeba histolytica HM-1:IMSS
HLA-A*24:03 = test: as above; details: source organism: Entamoeba histolytica HM-1:IMSS
HLA-B*15:01 [19] = test: as above; details: source organism: Entamoeba histolytica HM-1:IMSS
HLA-A*31:01 [20] = test: IEDB peptide-MHC binding, purified MHC/competitive/fluorescence; ≥ and ≤ were set here for values at or beyond the usual limits of such assays; details: source organism: Homo sapiens

FLPPQIPVI showed a Kd (HLA-B*40:01) of at least 20 µM, a Kd (HLA-B*07:02) of at least 20 µM and a Kd (HLA-A*02:16 [1]) of at most 0.001 µM. The Kd (HLA-A*01:01) was at least 20 µM, the Kd (HLA-B*08:01) was at least 20 µM and the Kd (HLA-B*44:02) was at least 20 µM. For the same sequence, the Kd (HLA-B*08:02) was at least 20 µM, the Kd (HLA-B*27:05) was at least 20 µM and the Kd (HLA-A*31:01 [2]) was at least 20 µM. It also gave a Kd (HLA-A*11:01) of at least 20 µM, a Kd (HLA-A*69:01 [3]) of 4.7 µM and a Kd (HLA-A*02:03 [4]) of at most 0.001 µM. The Kd (HLA-A*02:12 [5]) was at most 0.001 µM, the Kd (HLA-A*02:19 [6]) was 0.018 µM and the Kd (HLA-A*02:01 [7]) was 0.0214 µM. It also gave a Kd (HLA-A*02:11 [8]) of at most 0.001 µM, a Kd (HLA-A*03:01 [9]) of at least 20 µM and a Kd (HLA-A*02:06) of at most 0.001 µM. It also gave a Kd (HLA-B*58:01) of at least 20 µM, a Kd (HLA-B*15:01 [10]) of 0.477 µM and a Kd (HLA-A*02:50) of at most 0.0001 µM.

LICYQIEYI gave a Kd (HLA-A*25:01) of at least 20 µM, a Kd (HLA-A*23:01) of at least 20 µM and a Kd (HLA-A*02:16 [11]) of at least 20 µM. For the same sequence, the Kd (HLA-A*29:02) was at least 20 µM, the Kd (HLA-A*68:02) was at least 20 µM and the Kd (HLA-A*69:01 [12]) was at least 20 µM. The Kd (HLA-B*15:17) was at least 20 µM, the Kd (HLA-A*02:03 [13]) was at least 20 µM and the Kd (HLA-A*02:12 [14]) was at least 20 µM. For the same sequence, the Kd (HLA-B*39:01) was at least 20 µM, the Kd (HLA-A*80:01) was at least 20 µM and the Kd (HLA-B*46:01) was at least 20 µM. For the same sequence, the Kd (HLA-B*51:01) was at least 20 µM, the Kd (HLA-A*26:01) was at least 20 µM and the Kd (HLA-B*27:03) was at least 20 µM. The Kd (HLA-A*02:19 [15]) was at least 20 µM, the Kd (HLA-A*02:01 [16]) was at least 20 µM and the Kd (HLA-A*02:11 [17]) was 0.0008 µM. The Kd (HLA-B*18:01) was at least 20 µM, the Kd (HLA-A*03:01 [18]) was at least 20 µM and the Kd (HLA-B*57:01) was at least 20 µM. For the same sequence, the Kd (HLA-A*24:03) was at least 20 µM and the Kd (HLA-B*15:01 [19]) was at least 20 µM.

In the case of TMGTGTFGR, the IC50 (HLA-A*31:01 [20]) is reported as 0.388 µM.

From the Immune Epitope Database (IEDB)
